Measured values: US20250333523A1 (Alector, published 2025)
Positions count from the first letter of the chain named. Several values for one entry are separate records, joined by “and”; a condition that tells them apart may be missing. Identical values can stand only once.

T1: Avi/HisMsIL18BPd (recombinant mouse IL-18BP with Avi and poly-His tags) (mouse, biotinylated with BirA on the Avi tag in some assays)
T1 construct: also called murine IL-18BP; IL-18BP-Avi-His (mouse)
T1 chain: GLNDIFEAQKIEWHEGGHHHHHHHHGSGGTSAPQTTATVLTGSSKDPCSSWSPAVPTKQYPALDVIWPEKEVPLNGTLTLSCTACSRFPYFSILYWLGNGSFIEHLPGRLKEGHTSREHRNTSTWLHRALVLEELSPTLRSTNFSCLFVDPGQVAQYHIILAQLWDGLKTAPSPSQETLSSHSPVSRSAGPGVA

T2: His/Avi-CynoIL18BP (recombinant cynomolgus IL-18BP with His and Avi tags) (cynomolgus monkey)
T2 construct: also called cynomolgus IL-18BP-Avi-His
T2 chain: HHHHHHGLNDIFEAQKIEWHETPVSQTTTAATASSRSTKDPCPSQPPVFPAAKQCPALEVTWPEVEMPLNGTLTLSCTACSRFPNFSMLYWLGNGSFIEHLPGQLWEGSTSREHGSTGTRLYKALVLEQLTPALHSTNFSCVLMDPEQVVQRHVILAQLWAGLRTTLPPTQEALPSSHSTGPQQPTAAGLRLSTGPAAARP

T3: Avi/His-HuIL18BPa (recombinant human IL-18BP isoform A with Avi and poly-His tags) (human, biotinylated with BirA on the Avi tag in some assays)
T3 construct: also called human IL-18BP-Avi-His
T3 chain: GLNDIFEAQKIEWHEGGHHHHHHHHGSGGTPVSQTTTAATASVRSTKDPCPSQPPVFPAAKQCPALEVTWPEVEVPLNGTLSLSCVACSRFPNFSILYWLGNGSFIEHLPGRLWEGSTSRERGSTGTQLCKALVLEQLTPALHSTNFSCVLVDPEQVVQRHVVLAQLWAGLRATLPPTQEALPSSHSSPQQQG

T4: mouse IL-18BPd-human IgG Fc (R&D Systems, Cat. #122-BP-100) (mouse; human, UniProt Q9Z0M9 29-193)
T4 construct: Bought; also called mouse IL-18BPd-Fc Chimera
T4 sequence (looked up): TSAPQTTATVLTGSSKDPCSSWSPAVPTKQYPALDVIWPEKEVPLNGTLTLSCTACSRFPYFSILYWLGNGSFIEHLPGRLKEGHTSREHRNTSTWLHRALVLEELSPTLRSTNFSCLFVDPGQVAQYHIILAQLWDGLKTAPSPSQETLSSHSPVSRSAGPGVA

B1: anti-IL18BP antibody BP-15 (antibody, human IgG1, V domains shown)
VH: QVQLVQSGAEVKKPGASVKVSCKASGYTFTTYDINWVRQAPGQGLEWMGIINPSGGSTSYAQKFQGRVTMTRDTSTSTVYMELSSLRSEDTAVYYCATGIGELDFDYWGQGTLVTVSS
VL: DIQMTQSPSSLSASVGDRVTITCRASQSISSYLNWYQQKPGKAPKLLIYKASTLHNGVPSRFSGSGSGTDFTLTISNLQPEDFATYYCQQAISFPLTFGGGTKVEIK
B2: anti-IL18BP antibody BP-16 (antibody, human IgG1, V domains shown)
VH: B1 VH with N52G, P53S, S54Y, S57A, G99A, I100E, G101E, D104R
VL: B1 VL
B3: anti-IL18BP antibody BP-02 (antibody, human IgG1, V domains shown)
VH: EVQLQQSGPELVKPGASVKIPCKASGYTFTDYNMDWVKQSHGKSLEWIGNINTNNGGTVYNQKFKGKATLTVDKSSSTAYMELRSLTSEDTAVYYCARSDTTVVASRYYAMDYWGQGTSVTVSL
VL: DIVLTQSPASLAMSLGKRATISCRASESVSIIATNLIHWYQQKPGQPPKLLIYHASNLETGVPARFSGSGSRTDFTLTIDPVEKDDVAIYYCLQSRKIPPTFGGGTKLEIK
B4: anti-IL18BP antibody BP-05 (antibody, human IgG1, V domains shown)
VH: B3 VH with G66D, M111L, L124S
VL: B3 VL with A33G, N35D, K84E
B5: anti-IL18BP antibody BP-04 (antibody, V domains shown)
VH: HVHLHQSGAELVRPGVSVKISCRGSGYTFTDYDVHWVKQSHAKSLEWIGVISTYYGDVGYNQEFKGKATMTLDKSSSTSYLELARLTSEDSAIYYCARSGTYYYGTRESHALDYWGQGTSVTVSS
VL: DIQMTQSPASLSVSVGETVTITCRTSDNVYSNLAWYQQKQGKSPQLLVYGAINLADGVPSRFSGSGSDTQYSLKINNLQSEDFGSYYCQHFWGNPYTFGGGTKLEIK
notes: also called BP-04 (hybridoma); BP-04 (parental)
B6: anti-IL18BP antibody BP-11 (antibody, human IgG1, V domains shown)
VH: QVQLQQSGAELAKPGASVKMSCKASGYTFTNYWMHWVKQRPGQGLEWIGHIDPSTGYTEYNQKFKDKATLTADKSSSTAYMQLSSLTSEDSAVYYCARGLGGLFGYWGQGTLVTVSA
VL: DIQMTQSPSSLSASLGGKVTITCKASQDINKFIAWYQHKPGKGPRLLIHHTSTLMPGIPSRFSGSGSGREYSFSISNLEPEDIATYYCLQYDNLLWTFGGGTKLEIR

Biological target: T1, Avi/HisMsIL18BPd (recombinant mouse …)
Test: ELISA, coated IL-18BP

Binder	ELISA binding ratio (fold-change over background) [fold over background]
B1	30.1
B2	22.1
B3	39.2
B4	32.1
B5	39.1
B6	43.6

Biological target: T2, His/Avi-CynoIL18BP (recombinant …)
Test: ELISA, coated IL-18BP

Binder	ELISA binding ratio (fold-change over background) [fold over background]
B1	34.5
B2	25.1
B3	29.7
B4	9.7
B5	45.2
B6	47.6

Biological target: T3, Avi/His-HuIL18BPa (recombinant human …)
Test: ELISA, coated IL-18BP

Binder	ELISA binding ratio (fold-change over background) [fold over background]
B1	32.7
B2	23.6
B3	35.1
B4	38.3
B5	39.7
B6	44.4

Biological target: T1, Avi/HisMsIL18BPd (recombinant mouse …)
Test: cell-based or functional assay

Binder	EC50 of IFNγ release, mouse splenocytes [nM]
B5	14.9

Biological target: T3, Avi/His-HuIL18BPa (recombinant human …)
Test: cell-based or functional assay

Binder	EC50 of IFNγ release, human PBMCs [nM]
B5	15.7

Biological target: T2, His/Avi-CynoIL18BP (recombinant …)
Test: SPR Carterra LSA, IgG immobilized

Binder	Kd [nM]
B5	3

Biological target: T3, Avi/His-HuIL18BPa (recombinant human …)
Test: SPR Carterra LSA, IgG immobilized

Binder	Kd [nM]
B1	18.8
B3	1.6
B4	1.67
B5	0.8

Biological target: T2, His/Avi-CynoIL18BP (recombinant …)
Test: SPR Biacore T200, IgG captured on Protein A/G

Binder	Kd	koff	kon
B5	7.3 nM and 8.5 nM	0.0032 s⁻¹ and 0.0033 s⁻¹	440000 M⁻¹ s⁻¹ and 390000 M⁻¹ s⁻¹

Biological target: T3, Avi/His-HuIL18BPa (recombinant human …)
Test: SPR Biacore T200, IgG captured on Protein A/G

Binder	Kd	koff	kon [M⁻¹ s⁻¹]
B5	1 nM and 1.1 nM	0.00059 s⁻¹ and 0.00062 s⁻¹	580000

Biological target: T2, His/Avi-CynoIL18BP (recombinant …)
Test: cell-based or functional assay

Binder	% of Max Gamma, human NK cells [%]	EC50 of IFNγ release, human NK cells [nM]
B1	10	0.000106
B2	51.6	8.4
B3	10.4	1.99
B5	25.9	2.41
B6	100	37.1

Biological target: T1, Avi/HisMsIL18BPd (recombinant mouse …)
Test: cell-based or functional assay
Remark: another data set of the same source

Binder	EC50 of IFNγ release, mouse splenocytes [nM]	Fold change of IFNγ at 10 µg/ml vs baseline, mouse splenocytes [fold]
B1	5.85	7.94
B2	3.08	11.9
B3	4.3	9.34
B4	2.94	3.15
B5	4.29	2.74
B6	7	2.75

Biological target: T3, Avi/His-HuIL18BPa (recombinant human …)
Test: cell-based or functional assay
Remark: another data set of the same source

Binder	EC50 of IFNγ release, human PBMC [nM]	Fold change of IFNγ at 10 µg/ml vs baseline, human PBMC [fold]
B1	100	36
B2	1.66	238
B3	0.75	16.7
B4	1.33	16.4
B5	0.67	19
B6	4.25	9.72

biological target: T4, mouse IL-18BPd-human IgG Fc (R&D …); test: blocking ELISA, competitor mouse IL-18

Binder	blocking ELISA signal normalized to isotype control (=1)
B1	0.211 ratio to isotype control
B3	0.132 ratio to isotype control
B4	0.138 ratio to isotype control
B5	0.122 ratio to isotype control
B6	0.14 ratio to isotype control

Biological target: T2, His/Avi-CynoIL18BP (recombinant …)
Test: SPR Biacore T200, IgG captured on Protein A/G
Remark: another data set of the same source

Binder	Kd [nM]
B2	11.8
B6	1

Biological target: T3, Avi/His-HuIL18BPa (recombinant human …)
Test: SPR Biacore T200, IgG captured on Protein A/G
Remark: another data set of the same source

Binder	Kd [nM]
B2	< 0.003
B6	2.9

Biological target: T2, His/Avi-CynoIL18BP (recombinant …)
Test: blocking ELISA, competitor rhesus IL-18

Binder	blocking ELISA signal normalized to isotype control (=1)
B3	0.973 ratio to isotype control
B4	0.989 ratio to isotype control
B5	0.943 ratio to isotype control
B6	0.49 ratio to isotype control

Biological target: T2, His/Avi-CynoIL18BP (recombinant …)
Test: SPR Carterra LSA, IgG immobilized; WB = weak binding with KD > 1 µM

Binder	Kd [nM]
B1	> 1000
B3	> 1000
B4	> 1000

Biological target: T3, Avi/His-HuIL18BPa (recombinant human …)
Test: blocking ELISA, competitor human IL-18

Binder	blocking ELISA signal normalized to isotype control (=1)
B3	0.167 ratio to isotype control
B4	0.191 ratio to isotype control
B5	0.165 ratio to isotype control
B6	0.089 ratio to isotype control
